Experimental data: US20240352445A1 (published 2024)

Legend:
[1] = target: SARS-CoV-2 spike protein trimer, wild type (SARS-CoV-2, UniProt P0DTC2 16-1213)

Binder | IC50 (Epsilon (B.1.427)) [µg/mL] | IC50 [1] [µg/mL]
hN2F (antibody, V domains shown) VH: EVQLVESGGGLVQPGGSLRLSCTVSGFSLSTYAMSWVRQAPGKGLEWIGVIASNADTYYASWAKGRFTISRDNSKNTLYLQMNSLRAEDTAVYYCARHPGSAGYGYAVYYAMDPWGQGTLVTVSS VL: DIQMTQSPSSLSASVGDRVTITCKASEDIRYGLNWYQQKPGKAPKLLIYGANTLEAGVPSRFSGSGSGTDFTLTISSLQPEDFATYYCQQGYSTPLTFGGGTKVEIK | 0.0178 | 
humanized antibody hN2F (antibody, V domains shown) VH: EVQLVESGGGLVQPGGSLRLSCTVSGFSLSTYAMSWVRQAPGKGLEWIGVIASNADTYYASWAKGRFTISRDNSKNTLYLQMNSLRAEDTAVYYCARHPGSAGYGYAVYYAMDPWGQGTLVTVSS VL: DIQMTQSPSSLSASVGDRVTITCKASEDIRYGLNWYQQKPGKAPKLLIYGANTLEAGVPSRFSGSGSGTDFTLTISSLQPEDFATYYCQQGYSTPLTFGGGTKVEIK |  | 0.0246
humanized antibody hN2Y (antibody, V domains shown) VH: EVQLVESGGGLVQPGGSLRLSCTVSGFSLSTYAMSWVRQAPGKGLEWIGVIASNADTYYASWAKGRFTISRDNSKNTLYLQMNSLRAEDTAVYYCARHPGSAGYGYAVYYAMDPWGQGTLVTVSS VL: DIQMTQSPSSLSASVGDRVTITCKASEDIRYGLNWYQQKPGKAPKLLIYGANTLEAGVPSRFSGSGSGTDYTLTISSLQPEDFATYYCQQGYSTPLTFGGGTKVEIK |  | 0.0382
hN2Y (antibody, V domains shown) VH: EVQLVESGGGLVQPGGSLRLSCTVSGFSLSTYAMSWVRQAPGKGLEWIGVIASNADTYYASWAKGRFTISRDNSKNTLYLQMNSLRAEDTAVYYCARHPGSAGYGYAVYYAMDPWGQGTLVTVSS VL: DIQMTQSPSSLSASVGDRVTITCKASEDIRYGLNWYQQKPGKAPKLLIYGANTLEAGVPSRFSGSGSGTDYTLTISSLQPEDFATYYCQQGYSTPLTFGGGTKVEIK | 0.018 | 
LxC1-G10 (antibody, V domains shown) VH: EVQLVESGGGLVQPGGSLRLSCTVSGFSLSTYAMSWVRQAPGKGLEWIGVIASNADTYYASWAKGRFTISRDNSKNTLYLQMNSLRAEDTAVYYCARHPGSAGYGYAVYYAMDPWGQGTLVTVSS VL: DIQMTQSPSSLSASVGDRVTITCQASERVFYGIDWYQQKPGKAPKLLIYGASALWHGVPSRFSGSGSGTDYTLTISSLQPEDFATYYCQQGYMVPIGFGGGTKVEIK | 0.0169 | 
C-A11 (antibody, V domains shown) VH: QSLEESGGRLVTPGTPLTLTCTVSGFSLSTYAMSWVRQAPGKGLEWIGVIASNADTYYASWAKGRITISKTSTTVDLKITSPTTEDTATYFCARHPGSAGYGYAVYYAMDPWGPGTLVTVSS VL: AIEMTQSPSSLAASVGDTVTITCKASEDIRYGLNWYQQKLGIAPKLLIYGANTLEAGVPSRFSGSGSETDYTLTISSVQAEDAGIYYCQQGYSTPLTFGAGTKVEIK | 0.014 | 
rabbit monoclonal antibody C-A11 (antibody, V domains shown) VH: QSLEESGGRLVTPGTPLTLTCTVSGFSLSTYAMSWVRQAPGKGLEWIGVIASNADTYYASWAKGRITISKTSTTVDLKITSPTTEDTATYFCARHPGSAGYGYAVYYAMDPWGPGTLVTVSS VL: AIEMTQSPSSLAASVGDTVTITCKASEDIRYGLNWYQQKLGIAPKLLIYGANTLEAGVPSRFSGSGSETDYTLTISSVQAEDAGIYYCQQGYSTPLTFGAGTKVEIK |  | 0.027
